EC50 data for nine molecules are collected here from patent US20260104418A1.

Test [1] concerns the target mouse CLDN18.2 (mouse) (UniProt P56857). The test can be described thus: FACS titration of AF647-labelled IgG on HEK293T mouse CLDN18.2 cells.
Test [2] concerns the target Claudin-18.1 (CLDN18.1) (human) (UniProt P56856). The test can be described thus: FACS titration of AF647-labelled IgG on HEK293T CLDN18.1 cells.

Residue numbers refer to the chain shown, from its start.

Sequence of Claudin-18.1 (CLDN18.1) (human) (P56856 whole entry): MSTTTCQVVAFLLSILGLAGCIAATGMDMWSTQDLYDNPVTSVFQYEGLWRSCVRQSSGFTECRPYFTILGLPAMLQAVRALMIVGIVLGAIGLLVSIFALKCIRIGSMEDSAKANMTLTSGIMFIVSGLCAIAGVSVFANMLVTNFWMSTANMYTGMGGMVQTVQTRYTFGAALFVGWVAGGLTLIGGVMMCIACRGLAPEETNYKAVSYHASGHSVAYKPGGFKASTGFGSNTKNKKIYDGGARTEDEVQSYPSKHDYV

B1: Ab 360 (antibody, V domains shown)
VH: VVQLQQSGPELVKPGASVKMSCKASGYTFTSYLMHWVRQKPGLGLDWIGYINPYNDGTNYNAKFIDKATLTSDKTSSTAYMELSSLTSEDSAIYYCTRGDYWGQGTSVTVSS
VL: DIVMTQSPSSLAVTAGEQVTMSCKSSQSLLNSGNQKNYLTWYQQKPGQPPKLLIYWASIRQSGVPDRFTGSGSGTDFTLTISSVQAEDLAVYYCLNDYGFPLTFGAGTKLELK
In general, EC50 refers to the concentration that produces a half-maximal response. Read a low EC50 as greater potency. As to B1, the values for the EC50 in test [1] and in test [2] were 57.7 nM and 1760 nM, respectively.

B2: Ab 331 (antibody, V domains shown)
VH: EVQLQQSGPELVKPGASVRMSCKASGYTFTSYIMHWVKQKPGQGPEWMGYINPYNDGTNYNEKFKDKATLTSDKSSSTAYMDLSSLTSEDSAVYYCTRGDYWGQGTSVTVSS
VL: B1 VL with A12T, Q18K, I54F, I59T, R60K, Q61K, G74R, G99S
Regarding B2, the EC50 was 810 nM in test [1] and 1680 nM in test [2].

B3: Ab 347 (antibody, V domains shown)
VH: EVQLQQSGPELVKPGASVKMSCKASGYTFTSYLIHWVKQKPGQGLEWIGYINPYNDATYYNEKFKAKATLTSDKSSSTAYMELSSLTSEDTAIYYCTRGDYWSQGTSVTVSS
VL: B1 VL with A12T, Q18K, I59T, A90T, G99S
As for B3, the EC50 in test [1] turned out to be 1350 nM; in test [2], 1230 nM.

B4: Ab 301 (antibody, V domains shown)
VH: VVQLQQSGPELVKPGASVKMSCKASGYTFTSFLIHWVRQKPGLGLEWIGYINPYDYGINYNVKFMDKVTLTSDKTSSTAYMELSSLTSADSAIYYCTRGDYWGQGTSVIVSS
VL: B1 VL with A15T, S22N, P46T, P49S, I59T
As to B4, the EC50 in test [1] worked out at 1610 nM; in test [2] it was 675 nM.

B5: Ab 307 (antibody, V domains shown)
VH: DVKLVESGGGLVKPGGSLKLSCAASGFTFSSYTMSWVRQTPEKRLEWVATIIIGGSYTYYPDSVKGRFTISRDNAKNTLYLQMSSLKSEDTAMYYCTRLVKGNAMDYWGQGTSVAVSS
VL: DIVMTQSPSSLTVTTGEKVTMSCKSSQSLLNSGNQKNYLSWYQQIPGQPPKLLFYWASTRESGVPDRFTGSGSGTDFTLTISNVQAEDLAVYYCQNDYSYPFTFGAGTKLELR
Turning to B5, in test [1], the 50% effective concentration (EC50) was determined as 68.8 nM. That is a double-digit nanomolar value.

B6: Ab 416 (antibody, V domains shown)
VH: EFQLQQSGPELVKPGASVKISCKASVYSFTGYNMNWVKQSNGKSLEWIGVINPNYGNTNYNQRFKGKATLTVDQSSSTAYMQLNSLTSEDSAVYYCARSEDYYNIRGASWGQGTLVTVSA
VL: QIVLTQSPAIMSASPGQKVTITCSASSTINYMHWYQQKLGSSPKLWIYDTSKLAPGVPARFSGSGSGTSYSLTISSMEAEDAASYFCHQWSSYPPTFGSGTKLELK
Turning to B6, in test [1], the EC50 was determined as 591 nM.

B7: Ab 432 (antibody, V domains shown)
VH: QIQLQQSGAELARPRASVKLSCKASGYTFTSDVISWVKQRPGQGLEWIGESYLRNGNTYYNENFKGKATLTADKSSSTAYMELRSLTSEDSAVYFCARSYYGNSFAYWGQGTLVTVSA
VL: DIVMTQSPSSLTVTAREKVTMNCKSTQSLLNSGNQKNYLTWYQQKPGQPPKLLIYWASTRESGVPDRFTGSGSGTDFTLTISSVQAEDLAVYYCQNAYYYPFTFGGGTKLEIK
B7: the half-maximal effective concentration (EC50) in test [1] was 96.8 nM. Compared with the last molecule, the EC50 is about 6.1-fold lower.

B8: Ab 358 (antibody, V domains shown)
VH: VVQLVESGGDFVQPGGSRKLSCAVSGFTFSSFGMHWVRQAPEKGLEWVAYISSGTTNIYYADTVKGRFTVSRDNPKNSLFLHMTSLRSEDTAMYYCVRSGYYGNSLDYWGQGTPLTVSS
VL: DIVMTQSPSSLTVTAGEKVTMSCKSSQSLFNSGNQRNYLTWYQQKPGQPPKLLIYWASTRESGVPDRFTGSGSGTGFTLTISSVQAEDLAFYYCQNVYIYPLTFGLGTKLELR
Consider B8, for which the EC50 in test [1] was 40.6 nM; in test [2], 1520 nM.

B9: Ab 409 (antibody, V domains shown)
VH: QVQLQQSGAELARPGASVKLSCKASGYTFTSYGISWVKQRTGQGLEWIGEISPRSGNTYYNEKFKGKATLTADKSSSTAYMELRSLTSEDSAVYFCATGVITTVIPTDWYFDVWGTGTTVTVSS
VL: DIQMTQTTSSLSASLGDRVTISCRASQDISNYLNWYQQKPDGTVKLLIYYTSRLHSGVPSRFSGSGSGTDYSLTISNLEPEDIATYYCQHYSKLPPTFGSGTKLEIK
B9: the half-maximal effective concentration (EC50) in test [1] is 1040 nM.
